This note sets out measurements from paper PMC12946210.

This series has as its target FBH1 (F-box helicase 1, isoform 4);SKP1;CUL1;RBX1 (human;human;human;human, UniProt Q2TAK1;P63208;Q13616;P62877 1-969;1-163;1-776;1-108, |||). Nature of the series: EMSA.

B1: Lag gap fork (mixed)
DNA 1: CTCAGGACTCAGTTCGTCAGCCCTTGACAGCGATGGAAGC
DNA 2: CGAAGGTAGCGACAGTTCCCCTGACGAACTGAGTCCTGAG
DNA 3: GCTTCCATCGCTCTCAAG
DNA 4: TCGCTACCTTCG
As for B1, the binding result is reported as “binds”.
